Reference: patent US20030060435

Legend:
[1] = target: dihydrofolate reductase
[2] = target: human wild-type p53 protein, P04637
[3] = target: T1, mouse wild-type p53 protein, P02340
T1 chain: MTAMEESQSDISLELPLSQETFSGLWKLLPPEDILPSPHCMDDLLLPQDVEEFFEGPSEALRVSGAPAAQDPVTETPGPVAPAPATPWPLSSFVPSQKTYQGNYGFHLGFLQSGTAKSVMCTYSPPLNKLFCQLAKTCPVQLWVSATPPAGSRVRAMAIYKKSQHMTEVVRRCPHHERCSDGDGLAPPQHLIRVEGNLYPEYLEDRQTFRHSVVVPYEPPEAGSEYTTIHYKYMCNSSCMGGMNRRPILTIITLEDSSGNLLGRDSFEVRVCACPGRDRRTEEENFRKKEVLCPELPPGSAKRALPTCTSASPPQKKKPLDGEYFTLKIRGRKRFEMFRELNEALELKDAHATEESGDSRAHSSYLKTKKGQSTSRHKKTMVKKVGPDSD

[4] = target: glyceraldehyde-3-phosphate dehydrogenase

Sequence of human wild-type p53 protein, P04637 (P04637 whole entry, looked up): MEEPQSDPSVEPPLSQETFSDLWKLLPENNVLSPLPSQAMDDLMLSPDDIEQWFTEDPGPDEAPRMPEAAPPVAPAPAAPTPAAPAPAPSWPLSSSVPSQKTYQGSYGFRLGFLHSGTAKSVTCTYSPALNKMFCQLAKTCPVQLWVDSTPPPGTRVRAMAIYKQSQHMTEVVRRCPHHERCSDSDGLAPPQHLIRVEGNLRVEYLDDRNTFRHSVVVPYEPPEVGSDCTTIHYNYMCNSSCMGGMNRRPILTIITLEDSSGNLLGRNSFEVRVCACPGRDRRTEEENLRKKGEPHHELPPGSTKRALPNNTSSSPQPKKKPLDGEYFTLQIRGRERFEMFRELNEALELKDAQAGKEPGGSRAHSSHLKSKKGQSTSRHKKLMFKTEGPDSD

B1: bovine m-calpain (Sigma) (protein)
chain 1: AGIAAKLAKDREAAEGLGSHERAVKYLNQDYAALRDECLEAGALFQDPSFPALPSSLGFKELGPYSSKTRGIEWKRPTEICDNPQFITGGATRTDICQGALGDCWLLAAIASLTLNEEILARVVPLDQSFQENYAGIFHFQFWQYGEWVEVVVDDRLPTKDGELLFVHSAEGSEFWSALLEKAYAKINGCYEALSGGATTEGFEDFTGGIAEWYELRKAPPNLFRIIQKALQKGSLLGCSIDITSAADSEAITFQKLVKGHAYSVTGAEEVESRGSLQKLIRIRNPWGEVEWTGQWNDNCPNWNTVDPEVRETLTRQHEDGEFWMSFNDFLRHYSRLEICNLTPDTLTSDSYKKWKLTKMDGNWRRGSTAGGCRNYPNTFWMNPQYLIKLEEEDEDQEDGESGCTFLVGLIQKHRRRQRKMGEDMHTIGFGIYEVPEELTGQTNIHLSKKFFLTTRARERSDTFINLREVLNRFKLPPGEYIVVPSTFEPNKDGDFCIRVFSEKKADYQVVDDEIEANIDEIDISEDDIDDGFRRLFAQLAGEDAEISAFELQTILRRVLAKRQDIKSDGFSIETCKIMVDMLDSDGSGKLGLKEFYILWTKIQKYQKIYREIDVDRSGTMNSYEMRKALEEAGFKMPCQLHQVIVARFADDDLIIDFDNFVRCLIRLETLFRIFKQLDPENTGMIQLDLISWLSFSVL
chain 2: MFLVNSFLKGGGGGGGGGGLGGGLGNVLGGLISGAGGGGGGGGGGGGGGGGTAMRILGGVISAISEAAAQYNPEPVPPRTHYSNIEANESEEVRQFRRLFAQLAGDDMEVSATELMNILNKVVTRHPDLKTDGFGIDTCRSMVAVMDSDTTGKLGFEEFKYLWNNIKKWQAVYKQFDVDRSGTIGSSELPGAFEAAGFRLNEHLYNMIIRRYSDEGGNMDFDNFISCLVRLDAMFRAFKSLDKDGTGQIQVNIQEWLQLTMYS
In the case of B1, the “degradation of the protein in reticulocyte lysate with calcium and m-calpain” value [1] is reported as “The degradation resistance of other proteins such as dihydrofolate reductase or glyceraldehyde-3-phosphate dehydrogenase under the same experimental conditions”, the “degradation of the in vitro translated protein in reticulocyte lysate with calcium (electrophoresis)” value [2] is reported as “led to the rapid disappearance of the neosynthesized proteins and the appearance of proteolytic fragments” and the “degradation of the in vitro translated protein in reticulocyte lysate with calcium (electrophoresis)” value [3] is reported as “led to the rapid disappearance of the neosynthesized proteins and the appearance of proteolytic fragments”. For the same protein, the “degradation of the protein in reticulocyte lysate with calcium and m-calpain” value [4] was “The degradation resistance of other proteins such as dihydrofolate reductase or glyceraldehyde-3-phosphate dehydrogenase under the same experimental conditions”.
